B1: Antibody 26 (bispecific antibody)
heavy: QVQLVQSGGGVVQPGRSLRLSCKASGYTFTRYTMHWVRQAPGKGLEWIGYINPSRGYTNYNQKVKDRFTISRDNSKNTAFLQMDSLRPEDTGVYFCARYYDDHYSLDYWGQGTPVTVSSGGGGSGGGGSGGGGSDIQMTQSPSSLSASVGDRVTITCSASSSVSYMNWYQQTPGKAPKRWIYDTSKLASGVPSRFSGSGSGTDYTFTISSLQPEDIATYYCQQWSSNPFTFGQGTKLQITRGGGGSQVQLQQSGAELVKPGSSVKISCKASGYTFTRNFIHWIKQQPGNGLEWIGWIFPGDGDTEYNQKFNGKATLTADKSSSTAYMQLSSLTSEDSAVYFCARGNYNYEYFDYWGQGVMVTVSSASTKGPSVFPLAPSSKSTSGGTAALGCLVKDYFPEPVTVSWNSGALTSGVHTFPAVLQSSGLYSLSSVVTVPSSSLGTQTYICNVNHKPSNTKVDKRVEPKSCHHHHHH
light: QVQLVQSGGGVVQPGRSLRLSCKASGYTFTRYTMHWVRQAPGKGLEWIGYINPSRGYTNYNQKVKDRFTISRDNSKNTAFLQMDSLRPEDTGVYFCARYYDDHYSLDYWGQGTPVTVSSGGGGSGGGGSGGGGSDIQMTQSPSSLSASVGDRVTITCSASSSVSYMNWYQQTPGKAPKRWIYDTSKLASGVPSRFSGSGSGTDYTFTISSLQPEDIATYYCQQWSSNPFTFGQGTKLQITRGGGGSDIQMTQSPASLSASLGETVSIECLASEDIYSYLAWYQQKPGKSPQLLIFAANRLQDGVPSRFSGSGSGTQFSLKISGMQPEDEGDYFCLQGSKFPYTFGPGTKLELNRTVAAPSVFIFPPSDEQLKSGTASVVCLLNNFYPREAKVQWKVDNALQSGNSQESVTEQDSKDSTYSLSSTLTLSKADYEKHKVYACEVTHQGLSSPVTKSFNRGEC
notes: B3 Fab with hOKT3 scFv fused to the N-termini of both the heavy and the light chain
B2: Antibody 27 (bispecific antibody)
heavy: QVQLQQSGAELVKPGSSVKISCKASGYTFTRNFIHWIKQQPGNGLEWIGWIFPGDGDTEYNQKFNGKATLTADKSSSTAYMQLSSLTSEDSAVYFCARGNYNYEYFDYWGQGVMVTVSSASTKGPSVFPLAPSSKSTSGGTAALGCLVKDYFPEPVTVSWNSGALTSGVHTFPAVLQSSGLYSLSSVVTVPSSSLGTQTYICNVNHKPSNTKVDKRVEPKSCGGGGSQVQLVQSGGGVVQPGRSLRLSCKASGYTFTRYTMHWVRQAPGKGLEWIGYINPSRGYTNYNQKVKDRFTISRDNSKNTAFLQMDSLRPEDTGVYFCARYYDDHYSLDYWGQGTPVTVSSGGGGSGGGGSGGGGSDIQMTQSPSSLSASVGDRVTITCSASSSVSYMNWYQQTPGKAPKRWIYDTSKLASGVPSRFSGSGSGTDYTFTISSLQPEDIATYYCQQWSSNPFTFGQGTKLQITRHHHHHH
light: B1 light
notes: B3 Fab with hOKT3 scFv at the heavy chain C-terminus and at the light chain N-terminus
B3: Antibody 28 (bispecific antibody)
chain 1: QVTLKESGPVLVKPTETLTLTCTVSGYSITSDYAWNWIRQPPGKALEWLAYISYSGSTSYNPSLKSRLSITKDTSKSQVVLTMTNMDPVDTATYYCARDPPYYYGSWGQGTTVTVSSASTKGPSVFPLAPSSKSTSGGTAALGCLVKDYFPEPVTVSWNSGALTSGVHTFPAVLQSSGLYSLSSVVTVPSSSLGTQTYICNVNHKPSNTKVDKRVEPKSCGGGGSQVQLVQSGGGVVQPGRSLRLSCKASGYTFTRYTMHWVRQAPGKGLEWIGYINPSRGYTNYNQKVKDRFTISRDNSKNTAFLQMDSLRPEDTGVYFCARYYDDHYSLDYWGQGTPVTVSSGGGGSGGGGSGGGGSDIQMTQSPSSLSASVGDRVTITCSASSSVSYMNWYQQTPGKAPKRWIYDTSKLASGVPSRFSGSGSGTDYTFTISSLQPEDIATYYCQQWSSNPFTFGQGTKLQITRHHHHHH
chain 2: DVVMTQSPLSLPVTLGQPASISCKSSQSLLDSDGKTYLNWLQQRPGQSPRRLIYLVSKLDSGVPDRFSGSGSGTDFTLKISRVEAEDVGVYHCWQGTHFPYTFGGGTKVEIKRTVAAPSVFIFPPSDEQLKSGTASVVCLLNNFYPREAKVQWKVDNALQSGNSQESVTEQDSKDSTYSLSSTLTLSKADYEKHKVYACEVTHQGLSSPVTKSFNRGEC
notes: format not described

Target: T1, Ins 5 type mutant CALR protein on UT-7/TPO CALR Ins 5 cells (UniProt P27797 18-417)
T1 sequence (looked up): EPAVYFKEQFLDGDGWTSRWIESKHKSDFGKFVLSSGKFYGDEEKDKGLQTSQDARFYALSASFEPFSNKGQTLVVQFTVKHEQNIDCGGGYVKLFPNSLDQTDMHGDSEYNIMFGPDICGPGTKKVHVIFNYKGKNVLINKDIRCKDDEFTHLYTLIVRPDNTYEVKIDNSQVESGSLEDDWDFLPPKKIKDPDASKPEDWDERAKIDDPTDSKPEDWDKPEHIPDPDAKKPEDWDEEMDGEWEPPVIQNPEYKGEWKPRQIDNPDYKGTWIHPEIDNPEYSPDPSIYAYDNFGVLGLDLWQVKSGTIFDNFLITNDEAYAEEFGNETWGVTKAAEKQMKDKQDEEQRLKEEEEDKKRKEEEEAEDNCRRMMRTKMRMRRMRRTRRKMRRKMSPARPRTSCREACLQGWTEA
Experiment: cell-based or functional assay

Binder	EC50 of cytotoxic activity (calcein release, T-LAK effector cells)
B1	39 pM
B2	36 pM
B3	5430 pM

Target: T2, protein having an Fc region and a His-tag added to the N-terminus of SEQ ID NO: 1
T2 construct: also called mutant CALR protein (antigen of the BLItz measurement); not shown: Fc region and His-tag at the N-terminus
T2 chain: RRMMRTKMRMRRM
Experiment: BLItz biolayer interferometry, Fc/His-SEQ ID NO: 1 protein on the biosensor
Method in brief: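 The Fc/His-tagged protein was loaded at 0.1 mg/mL onto Anti-Penta-HIS or Protein A biosensors. Antibodies were run at 500, 100 and 50 nM by biolayer interferometry, and the dissociation constant was derived from these binding curves.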

Kd	Binder
0.0123 µM	B1
0.0136 µM	B2
1480 µM	B3

Reference: US20240092890A1 (JUNTENDO EDUCATIONAL FOUNDATION, published 2024)
